According to PMC11143374, “Conformations of Bcs1L undergoing ATP hydrolysis suggest a concerted translocation mechanism for folded iron-sulfur protein substrate” (Nature Communications, 2024):
One block for each molecule: values may come before it.

Assays:
[1] = target: AAA domain of mBcs1L (ΔNmBcs1L, residues 151-420) (mouse) (UniProt Q9CZP5); experiment: native gel or EMSA; BN-PAGE of ΔNmBcs1L with AMP-PNP or ATPγS
[2] = target: T1, mouse Bcs1L (mBcs1L), wild type, hexahistidine-tagged (mouse, UniProt Q9CZP5 1-418); experiment: cell-based or functional assay
T1 sequence (looked up): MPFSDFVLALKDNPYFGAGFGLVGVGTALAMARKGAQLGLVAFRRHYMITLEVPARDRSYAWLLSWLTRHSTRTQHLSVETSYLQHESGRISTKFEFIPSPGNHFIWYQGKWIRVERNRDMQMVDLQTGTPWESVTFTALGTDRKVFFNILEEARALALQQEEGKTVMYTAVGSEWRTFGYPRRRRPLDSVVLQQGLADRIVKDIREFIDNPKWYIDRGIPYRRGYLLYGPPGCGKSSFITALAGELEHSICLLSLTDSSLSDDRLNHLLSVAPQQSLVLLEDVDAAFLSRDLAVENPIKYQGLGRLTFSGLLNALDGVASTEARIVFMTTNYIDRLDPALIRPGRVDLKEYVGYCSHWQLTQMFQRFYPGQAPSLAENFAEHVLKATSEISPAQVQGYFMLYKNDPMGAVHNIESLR

stoichiometry N [1]: 7
Molecule: AAA domain of mBcs1L (ΔNmBcs1L, residues 151-420) (from UniProt Q9CZP5 151-418) (domain or fragment)

ATPase activity of mBcs1L (malachite green, 37 °C, 15 min) at different ISP-ED:mBcs1L heptamer molar ratios; maximal stimulation at a ratio of 3-4, no further change at higher ratios [2]: ~50 % stimulation
B1: extrinsic domain of the Rieske iron-sulfur protein (ISP-ED), bovine (domain or fragment, UniProt P13272 146-274, looked up)
chain: VLAMSKIEIKLSDIPEGKNMAFKWRGKPLFVRHRTKKEIDQEAAVEVSQLRDPQHDLERVKKPEWVILIGVCTHLGCVPIANAGDFGGYYCPCHGSHYDASGRIRKGPAPLNLEVPSYEFTSDDMVIVG
